A short description of the data set: label from the status in PepcDB records.

Regarding “HCSADLVLVEPTPLAVLDRIALVTDNGPFDPRKVELANGLAAAAGASLVLGHAVPADATEDQRATVRTYHEDLMGLCTVPVESNIVGTTTPAAMARAVSAADLVVVESDAAWWARLLDNREPQRIAGAFGGPAIVVRPQQAEGPSPVRRLLERVAF”, the protein production entry is “failed”.
With “HEHPTSAGGDGGAGTGAVGTHDGSAAAAAAAAALPSISGARGHAGPEGGHDNDMGGMDASGGGGGGGYGRLPGLAAQSSMASVDGDEASLPPIANLSLGKANMTGSTVGGAAHASTRRSTLNTYYEPGAGGGGGTGGAGGGGGGAGPGPAGYGKVAKAAAVGGAGSVAGGGGVVGGAGVGGGGAVGSGTVGRRQSVGVVVGKYGSVNKQASQGHGGGGPGVAGAAGMAVTGGHAGGGVGGGGGGAVGVGGVGVNKYKANVGKTNSKYISPYSLRQLAG”, the protein production result was “failed”.
For “HERVGNLNQPIEVTALYSFEGQQPGDLNFQAGDRITVISKTDSHFDWWEGKLRGQTGIFPANYVTMN”, the protein production entry is on record as “not failed”.
Next, “HLGIPPSGALDQYALRAANLLVGNAPTAAVLECALLGPQLEFQRDALVAVCGARMTPRLEGAEMPLDTSFRVRAGQVLGFDFIRAGARGYLAIDGGIAVPEVLGSRSTYGLGAIGGLQGRRLAEGDLLPLGPASPSAVEGLALPRSLQVEVGGEVSLRVVPGLYVHRLTPDAVERFFAETWTVGSEADRTGYRFKGGTALRFEPREQPFGAGSDPSNIVDACYPIGSIQVPGGLEPIVLHRDAVSGGGYATLGTVISPDLNRLAQMQPNQKGRFVAVSLEEGLEARRRYNWQ”: “failed”; “HPEKCSECSYSCSSKAALRIHERIHCTDRPFKCNYCSFDTKQPSNLSKHMKKFHGDM”: “not failed”.
On to “HSAIVILDSRGNIQRFNRLCEDYTGLKEHDVIGQSVFKLFMSRREAAASRRNNRVFFRSGNAYEVELWIPTRKGQRLFLFRNKFVHSGSGKNEIFLICSGTD”, for which the protein production entry was “failed”.
Consider “HYRRALSGPVDPGLAVFSAYWDRGVSCNPAAIAAKLAELAPHIHPVWVVARNKAALLPPGTDHIVPGTRRYWEVMARAKYLVNNVNFPNSVVKRPDAIHLQTHHGTPLKRMGLDQREFPAASKGLDFGALLARIDKWDYSVSANSHSTRMWERAYPSHYISLDHGYPRNDVFYSATADDIRAIRDRLGIPPGRRAILYAPTHRDYEAGWTPRLDLASLADRLGEETVLLVRGHYFYGGAASPLAGLRRSGRVIDVSTYDPVEELCLAADALVTDYSSIMFDYANLNRPIVIYADDWETYAKTRGVYFDLMAEGPGQVTRTQDELAAVFESGAWRDEGARKALSAFRRRFCEFDDGRAAERVVR”, for which the protein production result is “failed”.
As to “IDFRPYGGFIFDMDGTLIDTMPAHLAAWQATADRFDFPFCQEWLHSLGGMPSFKIVAELNRHYGLSLDPQTVSKFKMETFAAMELQGDVIQCTGIVLEEYLGQKKIAVGTGSQRESAMRLLSHAGLIDRLDAVVTASDVENHKPCPDTFLLAADRLGIDAQNCLVFEDTELGKRAAHSAGMDCVMVEGNNLV”, the protein production result is “failed”.
Next, “IDLAHPDLALHLHLNRGGAVLSLDGSGVSLHRRGYRAAMGAAPLKENLAAGLIQLTGWDGRMPLVDPFCGSGILLIEAVTMALQQAPGLGRQFGLEGWADFDRELWEREHARARQRRRSDLDLAPVVGYEQDPLIADQARDNIRAAGLDGLISIHSGSFEQQTLPPGPGLLVCNPPYGHRVGSEDDLEQLYRLLGSFVREQASGWQLWLLSGNASLTGALRLKASRRIPVSNGGIDCRWLNYGIR”: “failed”.
Next, “IKENAAQEVLEVQKVIDRLADNGQKALKAFESYNQEQVDNIVHAMALAGLDQHMPLAKLAVEETGRGLYEDKCIKNIFATEYIWNNIKNNKTVGVINEDTQTGVIEIAEPVGVVAGVTPVTNPTSTTLFKAIIAIKTRNPIIFAFHPSAQRCSSEAAKVVYDAAVAAGAPEHCIQWVEKPSLEATKQLMNHDKVALVLATGGAGMVKSAYSTGKPALGVGPGNVPAYIDKTAKIKRSVNDIILSKSFDQGMICASE”: “failed”; “IKNFLYAWCGKRKMTPAYEIRAVGNKNRQKFMCEVRVEGFNYAGMGNSTNKKDAQSNAARDFVNYLVRINEVKSEEVPAVGIVPPP”: “not failed”; “IKQMLLDWCRAKTRGYEHVDIQNFSSSWSDGMAFCALVHNFFPEAFDYGQLSPQNRRQNFEVAFSSAETHADCPQLLDTEDMVRLREPDWKCVYTYIQEFYRCLVQKGLVKTKKS”: “not failed”.
For the sequence “ILQLTSDTLILVDKNGTCLDIDPHSDLWFLQEDRLLGKNLFNLLPDHTFQKLLPDFRRVTQQGITVNRNYRLPLEGGETYYFKCIMQPYDGDKVLCQYRDIT”, the protein production entry is “failed”.
The result for “INKIENYEQSTSQLREEINALYNQVIEVGQALSKQRRIVARELRDHIVSEIQNLQMKDANLEISFKKLEEPNIDGIEFVEFLISPNKGEPLKSLNKIASGGELSRIMLALKSIFVKSRGQTAILFDEVDSGVSGQAAQKMAEKMRDIAEYIQVICISHLPQVASMSDHHLLI” reads “failed”.
Regarding “INYYDTYIKTCLDNLKRKNTRRSIKLDGKGEPKGAKRAKPVKYTAAKLHEKGVLLDIDDLQTNQFKNVTFDIIATEDVGIFDVRSKFLGVEMEKVQLNIQDLLQMQYEGVAVMKMFDKVKVNVNLLIYLLNKKFYGK”, the protein production result is “failed”.
The result for “IPKHPDSEAVAPDPFNPAATQLLDDTSWVLSAWKQADGTARAVPSADQGAPITLTLSTSTGQRHASGFSGCNRYMGSYALKDGKLSFGTLGGTRMACMTPGGQIEGAYLNALTHIDRTGVQMRAPQQMQLVLDNGDTLTFDRSTR” reads “not failed”; that for “IPLEQGIEFLSVNVEEDSPVVGKKLKDLPLPRDSIIAAIVRGGVLVVPRGDTEILSGDKLYVIVSAEAKETVEETLLGR”, “not failed”; that for “IQVDYEDVKLDGYFFSPSWIKGPKPTILALNGGDEWSIENYFWLGPAFISCGYNFMVYDQPGTGLSMYEKGKGRRADSEAFHSRAIDFLLTRPEVDPNKIIVHGESFAAYDSLRFASFDHRIAAVISDGGTHAFDWEAMLKWMPPSLAGHGMRILGAKSLDDFAENPRFAYNLEGVLHQIECPLLVMHGAEEILVQPNPLTQALKNYEQAGSKNKTFFPIEDRRIGGLEHCQVDNINVLHEVVLNWL”, “not failed”.
With “ISDQAETPMFNIGSAVPRGELVLAMEKIGKLLQERGGSVVIRGHTDGRQFKGEANDNWRLSMDRAHSAYYMLVRGGLSEERVKQVSGFADRRLQVPSNPLADANRRIEILLEADRG”, the protein production result is “failed”.
Next, “ISKASATRHSQLVTHACRLIETSDPVPSLGQLSARLAVSPFHLHRLFKAETGV”: “failed”.
In the case of “ITSVQPPTGLQEWLKMFQSWSGPEKLLALDELIDSCEPTQVKHMMQVIEPQFQRDFISLLPKELALYVLSFLEPKDLLQAAQTCRYWRILAEDNLLWREKCKEEGIDEPLHIKRRKVIKPGFIHSPWKSAYIRQHRIDTNWRRGELKSPKVLKGHDDHVITCLQFCGNRIVSGSDDNTLKVWSAVTGKCLRTLVGHTGGVWSSQMRDNIIISGSTDRTLKVWNAETGECIHTLYGHTSTVRCMHLHEKRVVSGSRDATLRVWDIETGQCLHVLMGHVAAVRCVQYDGRRVVSGAYDFMVKVWDPETETCLHTLQGHTNRVYSLQFDGIHVVSGSLDTSIRVWDVETGNCIHTLTGHQSLTSGMELKDNILVSGNADSTVKIWDIKTGQCLQTLQGPNKHQSAVTCLQFNKNFVITSSDDGTVKLWDLKTGEFIRNLVTLESGGSGGVVWRIRASNTKLVCAVGSRNGTEETKLLVLDFDVDMK”, the protein production entry was “failed”.
Regarding “KAEAEQNWWEGPPQDLSVHLWYAGPMERAGAESILANRSDGTFLVRQRVKDAAEFAISIKYNVEVKHIKIMTAEGLYRITEKKAFRGLTELVEFYQQNSLKDCFKSLDTTLQFPFKEPEKRTISR”, the protein production entry was “not failed”.
In the case of “KAKAAFFDIDGTLYREGLISEVFKKLIKYEIIDEEKWYKEVRPEFEKWDNRKGDYDDYLLKMTEIYVDALNGLSKSQVEFIASQVVNQKGERVYTYTRDRIKWHKERGHKIITISGSPIELVRNMAEKYGFDDYRGAEYLLDENDVYTGEVIPMWDSKSKERAVHELEAKYNIDLGESYAYGDTSGDLTMLKMVGNPVCINPTKELVKEILSDEEVKNKIRIIVERK”, the protein production result is given as “not failed”.

These data come from a protein production outcome set (Wang et al. 2014).
